From patent publication US20140194025A1, “Production of Highly Concentrated Solutions of Self-Assembling Proteins” (Freudenberg Forschungsdienste KG, priority 2010, published 2014)

Assay: Solubility of the hydrophobic protein and its fragments
Format: physicochemical

B1: R16 protein: synthetic combination protein formed from silk proteins and resilins, polypeptide sequence SEQ ID NO: 4 (protein)
chain: MASMTGGQQMGRGSMGPGSSAAAAAAAASGPGQGQGQGQGQGGRPSDTYGPGSSAAAAAAAASGPGQGQGQGQGQGGRPSDTYGPGSSAAAAAAAASGPGQGQGQGQGQGGRPSDTYGPGSSAAAAAAAASGPGQGQGQGQGQGGRPSDTYGPGSSAAAAAAAASGPGQGQGQGQGQGGRPSDTYGPGSSAAAAAAAASGPGQGQGQGQGQGGRPSDTYGPGSSAAAAAAAASGPGQGQGQGQGQGGRPSDTYGPGSSAAAAAAAASGPGQGQGQGQGQGGRPSDTYGPGSSAAAAAAAASGPGQGQGQGQGQGGRPSDTYGPGSSAAAAAAAASGPGQGQGQGQGQGGRPSDTYGPGSSAAAAAAAASGPGQGQGQGQGQGGRPSDTYGPGSSAAAAAAAASGPGQGQGQGQGQGGRPSDTYGPGSSAAAAAAAASGPGQGQGQGQGQGGRPSDTYGPGSSAAAAAAAASGPGQGQGQGQGQGGRPSDTYGPGSSAAAAAAAASGPGQGQGQGQGQGGRPSDTYGPGSSAAAAAAAASGPGQGQGQGQGQGGRPSDTYG
solubility in water: about 1%
